# Results taken from PMC9637641, “Regulation of factor V by the anticoagulant protease activated protein C: Influence of the B-domain and TFPIα” (The Journal of Biological Chemistry, 2022).
# B1: FV-short (natural protein)
# chain: AQLRQFYVAAQGISWSYRPEPTNSSLNLSVTSFKKIVYREYEPYFKKEKPQSTISGLLGPTLYAEVGDIIKVHFKNKADKPLSIHPQGIRYSKLSEGASYLDHTFPAEKMDDAVAPGREYTYEWSISEDSGPTHDDPPCLTHIYYSHENLIEDFNSGLIGPLLICKKGTLTEGGTQKTFDKQIVLLFAVFDESKSWSQSSSLMYTVNGYVNGTMPDITVCAHDHISWHLLGMSSGPELFSIHFNGQVLEQNHHKVSAITLVSATSTTANMTVGPEGKWIISSLTPKHLQAGMQAYIDIKNCPKKTRNLKKITREQRRHMKRWEYFIAAEEVIWDYAPVIPANMDKKYRSQHLDNFSNQIGKHYKKVMYTQYEDESFTKHTVNPNMKEDGILGPIIRAQVRDTLKIVFKNMASRPYSIYPHGVTFSPYEDEVNSSFTSGRNNTMIRAVQPGETYTYKWNILEFDEPTENDAQCLTRPYYSDVDIMRDIASGLIGLLLICKSRSLDRRGIQRAADIEQQAVFAVFDENKSWYLEDNINKFCENPDEVKRDDPKFYESNIMSTINGYVPESITTLGFCFDDTVQWHFCSVGTQNEILTIHFTGHSFIYGKRHEDTLTLFPMRGESVTVTMDNVGTWMLTSMNSSPRSKKLRLKFRDVKCIPDDDEDSYEIFEPPESTVMATRKMHDRLEPEDEESDADYDYQNRLAAALGIRSFRNSSLNQEEEEFNLTALALENGTEFVSSNTDIIVGSNYSSPSNIDLGQMPSPSSPTLNDTFLSKEFNPLVIVGLSKDGTDYIEIIPKEEVQSSEDDYAEIDYVPYDDPYKTDVRTNINSSRDPDNIAAWYLRSNNGNRRNYYIAAEEISWDYSEFVQRETDIEDSDDIPEDTTYKKVVFRKYLDSTFTKRDPRGEYEEHLGILGPIIRAEVDDVIQVRFKNLASRPYSLHAHGLSYEKSSEGKTYEDDSPEWFKEDNAVQPNSSYTYVWHATERSGPESPGSACRAWAYYSAVNPEKDIHSGLIGPLLICQKGILHKDSNMPMDMREFVLLFMTFDEKKSWYYEKKSRSSWRLTSSEMKKSHEFHAINGMIYSLPGLKMYEQEWVRLHLLNIGGSQDIHVVHFHGQTLLENGNKQHQLGVWPLLPGSFKTLEMKASKPGWWLLNTEVGENQRAGMQTPFLIMDRDCRMPMGLSTGIISDSQIKASEFLGYWEPRLARLNNGGSYNAWSVEKLAAEFASKPWIQVDMQKEVIITGIQTQGAKHYLKSCYTTEFYVAYSSNQINWQIFKGNSTRNVMYFNGNSDASTIKENQFDPPIVARYIRISPTRAYNRPTLRLELQGCEVNGCSTPLGMENGKIENKQITASSFKKSWWGDYWEPFRARLNAQGRVNAWQAKANNNKQWLEIDLLKIKKITAIITQGCKSLSSEMYVKSYTIHYSEQGVEWKPYRLKSSMVDKIFEGNTNTKGHVKNFFNPPIISRFIRVIPKTWNQSIALRLELFGCDIY
# What was measured:
# OG488-TFPIα-BR [1] = molecular target: T1, OG488-TFPIα-BR (fluorescently labeled with OG488 (Oregon Green 488 maleimide)); assay: cell-based or functional assay
# T1 sequence (P10646 268-293): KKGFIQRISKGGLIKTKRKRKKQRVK
# OG488-TFPIα-BR [2] = molecular target: T1, OG488-TFPIα-BR; assay: fluorescence polarisation; steady-state fluorescence anisotropy; FV species or APCi titrated (0–100 nM) into 25 nM OG488-TFPIα-BR and 50 μM PCPS vesicles in HBS/Ca2+/PEG, pH 7.4 (20 mM Hepes, 150 mM NaCl, 5 mM CaCl2, 0.1% PEG-8000), 25 °C; fit to a model for tight binding; details: both partners purified
binder,measurement,setting,value
B1,"Reduced fold change of inactivation by APC, +TFPIα-BR (kobs no BR divided by kobs +BR; % peak thrombin in TGA; 20 nM FV species, 250 nM BR fragment, 1 nM APC)",OG488-TFPIα-BR [1],14.2 fold
same,Kd,OG488-TFPIα-BR [2],1.56 nM
same,stoichiometry N,OG488-TFPIα-BR [2],1.18 mol/mol
